Substrate: NC(=O)C[C@H](N)C(=O)O
Assay: ammonia release by direct Nesslerization; Lineweaver-Burk plot
Format: biochemical, Thermococcus sibiricus
Settings: Tris-HCl 0.05 M, pH 9.0, 90 °C, printed substrate range 20-250 μM

B1: TsA (L-asparaginase from Thermococcus sibiricus) (Thermococcus sibiricus MM 739) (protein)
chain: MKKLLIIGTGGTIASAKTEQGYKSVLKIDEILKLAKIKLENGYKIDSTNIMNIDSTLIHPEDWEIIAKEVFKALDDYDGIIITHGTDTLAYTASMLSFMIKNPNKPIVLTGSMLPITENGSDAPRNIRTAIKFAMEDVAGVFVAFMDKIMLGCRTSKVRTLGLNAFMSINYPDVAYVKGEKILYNIPKEKFQPNGSPELDTKYEPRVVVLRVTPGLGGEIIDAVLDAGYKGIVLEGYGAGGLPYRKSNLLSKIKEITPKIPVIMTTQALYDGVDMRKYEVGRKALETGIIPAKDMTKEATITKLMWALGHTKDVEKIREIMHTNYVNEIKS
notes: full-length, 331 residues, codon-optimized synthetic gene in pET-28a(+) NheI/SalI, E. coli BL21 (DE3); SP-Sepharose ion exchange
  Km: 2.8 mM

Reference: PMC8470970, “A Novel L-Asparaginase from Hyperthermophilic Archaeon Thermococcus sibiricus: Heterologous Expression and Characterization for Biotechnology Application” (International Journal of Molecular Sciences, 2021)
